One block for each binder: values may come before it.
Assays:
[1] = target: T1, human PDL1 expressed on cells (human, UniProt Q9NZQ7 19-290); test: cell-based or functional assay
[2] = target: cynomolgus PDL1, recombinant (Sino Biological) / PDL1-Fc chimeric protein (cynomolgus (Macaca fascicularis), UniProt G7PSE7 19-238); test: SPR Biacore T200; cynomolgus PDL1 (Sino Biological) captured; scFv as analyte
Protocol: After each analyte injection cycle, the CM5 sensor chip was regenerated and new antigen was captured. The scFvs were injected as analyte using a dose response multicycle kinetic assay with concentrations of the analyte ranging from 0.12 to 30 nM diluted in running buffer for 5 min and dissociation of the protein was allowed to proceed for 12 min. Obtained sensorgrams were fitted using the 1:1 binding model.

[3] = target: T1, human PDL1 expressed on cells; test: cell-based or functional assay; remark: listed apart in the source
[4] = target: T2, human PDL1 (recombinant, soluble) (human, UniProt Q9NZQ7 19-238); test: PDL1/PD-1 competition ELISA; PD-1 coated, biotinylated PDL1 1 ng/ml
T2 construct: also called hPDL1; hPD-L1
Protocol: (§1) ELISA microplates coated overnight at 4° C. with 4 μg/ml human PD-1 were washed three times with 450 μl wash buffer per well. Plates were blocked for 1 hour at room temperature by adding 300 μl of PBS with 1% BSA and 0.2% tween (dilution buffer) to each well. […] The mixtures were pre-incubated for 1 hour at room temperature under gentle agitation on a rotating mixer (21 rpm) and added to the microplates after 3 wash cycles with 450 μl wash buffer per well. Plates were incubated for 1.5 hours at room temperature under gentle agitation, then 10 ng/ml streptavidin-polyHRP40 was added to each microplate well after three washes with 450 μl of wash buffer per well. After 1 h incubation at RT, plates were washed three times with 450 μl wash buffer and TMB substrate solution was added. The enzymatic reaction was stopped after 6 minutes by addition of 1 M HCl and absorbance was measured at 450 nm using 690 nm as a reference wavelength. For calculation of IC₅₀ values, a four-parameter logistic (4PL) curve fit was performed in Graph Pad Prism using reference subtracted values.

[5] = target: T2, human PDL1 (recombinant, soluble); test: PDL1/B7-1 competition ELISA; B7-1 coated, biotinylated PDL1 40 ng/ml
Protocol: as §1, with “B7-1” for “PD-1”

cynomolgus PDL1, recombinant (Sino Biological) / PDL1-Fc chimeric protein, sequence (G7PSE7 entry or part of it mutant limits assumed): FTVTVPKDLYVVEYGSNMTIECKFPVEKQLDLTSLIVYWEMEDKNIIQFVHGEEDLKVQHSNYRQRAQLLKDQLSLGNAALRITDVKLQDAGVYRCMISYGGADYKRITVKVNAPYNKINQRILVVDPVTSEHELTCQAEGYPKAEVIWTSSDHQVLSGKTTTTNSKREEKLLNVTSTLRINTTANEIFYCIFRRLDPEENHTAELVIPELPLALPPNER

B2: PRO963 (= PRO1051)(38_02_A04 sc01 scDb-i/33-03-G02 sc01 scDb-o/19-01-H04-sc03 scFv) (other)
chain: DIQMTQSPSSLSASVGDRVTITCQASQSINDYLAWYQQKPGKAPKLLIYKASTLASGVPSRFSGSGSGTDFTLTISSLQPEDFATYYCQQGYIITDIDNVFGTGTKVTVLGGGGGSQVQLQESGPGLVKPSETLSLTCKVSGFSFSNSYWICWIRQPPGKGLEWIGCTFVGSSDSTYYANWAKGRVTISVDSSKNQFSLKLSSVTAADTAVYYCARHPSDAVYGYANNLWGQGTLVTVSSGGGGSGGGGSGGGGSGGGGSIQMTQSPSSLSASVGDRVTITCQASQSINNVLAWYQQKPGKAPKLLIYRASTLASGVPSRFSGSGSGTDFTLTISSLQPEDFATYYCQSSYGNYGDFGTGTKVTVLGGGGGSQVQLQESGPGLVKPSETLSLTCKVSGFSFSSGYDMCWIRQPPGKGLEWIGCVVAGSVDITYYASWAKGRVTISVDSSKNQFSLKLSSVTAADTAVYYCARKDAYSDAFNLWGQGTLVTVSSGGGGSGGGGSIQMTQSPSSLSASVGDRVTITCQSSESVYSNNQLSWYQQKPGQPPKLLIYDASDLASGVPSRFSGSGSGTDFTLTISSLQPEDFATYYCAGGFSSSSDTAFGGGTKLTVLGGGGGSGGGGSGGGGSGGGGSEVQLVESGGGLVQPGGSLRLSCAASGFSLSSNAMGWVRQAPGKGLEYIGIISVGGFTYYASWAKGRFTISRDNSKNTVYLQMNSLRAEDTATYFCARDRHGGDSSGAFYLWGQGTLVTVSS
- NF-AT potency assay IC50 (with HSA) [3]: 0.275 µg/mL

B5: PRO1013 (37-20-B03-sc02 scFv) (scFv)
scFv: DIQMTQSPSSLSASVGDRVTITCQASQSIGTYLAWYQQKPGKAPKLLIYRAFILASGVPSRFSGSGSGTDFTLTISSLQPEDFATYYCQSNFYSDSTTIGPNAFGTGTKVTVLGGGGGSGGGGSGGGGSGGGGSQVQLVQSGAEVKKPGASVKVSCKASGFSFNSDYWIYWVRQAPGQGLEWMGSIYGGSSGNTQYASWAQGRVTMTRDTSISTAYMELSSLRSEDTAVYYCARGYVDYGGATDLWGQGTLVTVSS
notes: also called 37-20-B03 CDR, VH1
- IC50 [4]: 0.00057 µg/mL
- IC50 [5]: 0.00405 µg/mL
- NF-AT potency assay IC50 [3]: 0.0213 µg/mL

B6: PRO951 (38-27-C05 sc02 scDb-i/33-03-G02 sc01 scDb-o) (bispecific antibody)
chain: DIQMTQSPSSLSASVGDRVTITCQASQSINDYLAWYQQKPGKAPKLLIYKASTLASGVPSRFSGSGSGTDFTLTISSLQPEDFATYYCQQGYIITDIDNVFGTGTKVTVLGGGGGSEVQLVESGGGLVQPGGSLRLSCAASGFSFNNDYDMCWVRQAPGKGLEWIGCIDTGDGSTYYASWAKGRFTISRDNSKNTVYLQMNSLRAEDTAVYYCAREAASSSGYGMGYFDLWGQGTLVTVSSGGGGSGGGGSGGGGSGGGGSIQMTQSPSSLSASVGDRVTITCQSSQSVYDNNWLAWYQQKPGKAPKLLIYRASNLASGVPSRFSGSGSGTDFTLTISSLQPEDFATYYCQGTYLSSNWYWAFGTGTKVTVLGGGGGSQVQLQESGPGLVKPSETLSLTCKVSGFSFSSGYDMCWIRQPPGKGLEWIGCVVAGSVDITYYASWAKGRVTISVDSSKNQFSLKLSSVTAADTAVYYCARKDAYSDAFNLWGQGTLVTVSS
- IC50 [4]: 0.0095 µg/mL
- IC50 [5]: 0.0093 µg/mL
- NF-AT potency assay IC50 [3]: 0.0885 µg/mL

B7: PRO1059 (33-03-G02 IgG1 LC with 38_02_A04 sc01 scFv, PDL1/CD137 (scFv) silent Morrison) (bispecific antibody)
light: DIQMTQSPSSLSASVGDRVTITCQASQSINDYLAWYQQKPGKAPKLLIYKASTLASGVPSRFSGSGSGTDFTLTISSLQPEDFATYYCQQGYIITDIDNVFGTGTKVTVLGTVAAPSVFIFPPSDEQLKSGTASVVCLLNNFYPREAKVQWKVDNALQSGNSQESVTEQDSKDSTYSLSSTLTLSKADYEKHKVYACEVTHQGLSSPVTKSFNRGECGGGGSGGGGSIQMTQSPSSLSASVGDRVTITCQASQSINNVLAWYQQKPGKAPKLLIYRASTLASGVPSRFSGSGSGTDFTLTISSLQPEDFATYYCQSSYGNYGDFGTGTKVTVLGGGGGSGGGGSGGGGSGGGGSQVQLQESGPGLVKPSETLSLTCKVSGFSFSNSYWICWIRQPPGKGLEWIGCTFVGSSDSTYYANWAKGRVTISVDSSKNQFSLKLSSVTAADTAVYYCARHPSDAVYGYANNLWGQGTLVTVSS
heavy: QVQLQESGPGLVKPSETLSLTCKVSGFSFSSGYDMCWIRQPPGKGLEWIGCVVAGSVDITYYASWAKGRVTISVDSSKNQFSLKLSSVTAADTAVYYCARKDAYSDAFNLWGQGTLVTVSSASTKGPSVFPLAPSSKSTSGGTAALGCLVKDYFPEPVTVSWNSGALTSGVHTFPAVLQSSGLYSLSSVVTVPSSSLGTQTYICNVNHKPSNTKVDKRVEPKSCDKTHTCPPCPAPEAAGGPSVFLFPPKPKDTLMISRTPEVTCVVVDVSHEDPEVKFNWYVDGVEVHNAKTKPREEQYNSTYRVVSVLTVLHQDWLNGKEYKCKVSNKALGAPIEKTISKAKGQPREPQVYTLPPSREEMTKNQVSLTCLVKGFYPSDIAVEWESNGQPENNYKTTPPVLDSDGSFFLYSKLTVDKSRWQQGNVFSCSVMHEALHNHYTQKSLSLSPGK
notes: also called Morrison-L
- IC50 [4]: 0.00454 µg/mL
- IC50 [5]: 0.029 µg/mL
- NF-AT potency assay IC50 [3]: 0.0938 µg/mL

Results, then the binder that gave them:

- reporter gene assay IC50 [1]: 0.00753 µg/mL
- reporter gene assay Maximum Inhibition (%) [1]: 88.9%
- KD, cyno/KD, human [2]: 1.41
- Kd [2]: 0.0127 nM
- koff [2]: 8.77e-05 s⁻¹
- kon [2]: 6.88e+06 M⁻¹ s⁻¹
B1: PRO1347 (37-20-B03-sc09 scFv) (scFv)
chain: DIQMTQSPASLSASVGDRVTITCQASQSIGTYLAWYQQKPGKPPKLLIYRAFILASGVPSRFSGSGSGTDFTLTISSLQPEDFATYYCQSNFYSDSTTIGPNAFGTGTKVTVLGGGGGSGGGGSGGGGSGGGGSEVQLVESGGGLVQPGGSLRLSCAASGFSFNSDYWIYWVRQAPGKGLEWIACIYGGSSGNTQYASWAQGRFTISRDNSKNTVYLQMNSLRAEDTAVYFCARGYVDYGGATDLWGQGTLVTVSS

- IC50 [4]: 0.00567 µg/mL
- IC50 [5]: 0.0174 µg/mL
- NF-AT potency assay IC50 [3]: 0.133 µg/mL
B3: PRO1060 (33-03-G02 IgG1 HC with 38_02_A04 sc01 scFv, PDL1/CD137 (scFv) silent Morrison) (bispecific antibody)
light: DIQMTQSPSSLSASVGDRVTITCQASQSINDYLAWYQQKPGKAPKLLIYKASTLASGVPSRFSGSGSGTDFTLTISSLQPEDFATYYCQQGYIITDIDNVFGTGTKVTVLGTVAAPSVFIFPPSDEQLKSGTASVVCLLNNFYPREAKVQWKVDNALQSGNSQESVTEQDSKDSTYSLSSTLTLSKADYEKHKVYACEVTHQGLSSPVTKSFNRGEC
heavy: QVQLQESGPGLVKPSETLSLTCKVSGFSFSSGYDMCWIRQPPGKGLEWIGCVVAGSVDITYYASWAKGRVTISVDSSKNQFSLKLSSVTAADTAVYYCARKDAYSDAFNLWGQGTLVTVSSASTKGPSVFPLAPSSKSTSGGTAALGCLVKDYFPEPVTVSWNSGALTSGVHTFPAVLQSSGLYSLSSVVTVPSSSLGTQTYICNVNHKPSNTKVDKRVEPKSCDKTHTCPPCPAPEAAGGPSVFLFPPKPKDTLMISRTPEVTCVVVDVSHEDPEVKFNWYVDGVEVHNAKTKPREEQYNSTYRVVSVLTVLHQDWLNGKEYKCKVSNKALGAPIEKTISKAKGQPREPQVYTLPPSREEMTKNQVSLTCLVKGFYPSDIAVEWESNGQPENNYKTTPPVLDSDGSFFLYSKLTVDKSRWQQGNVFSCSVMHEALHNHYTQKSLSLSPGKGGGGSGGGGSIQMTQSPSSLSASVGDRVTITCQASQSINNVLAWYQQKPGKAPKLLIYRASTLASGVPSRFSGSGSGTDFTLTISSLQPEDFATYYCQSSYGNYGDFGTGTKVTVLGGGGGSGGGGSGGGGSGGGGSQVQLQESGPGLVKPSETLSLTCKVSGFSFSNSYWICWIRQPPGKGLEWIGCTFVGSSDSTYYANWAKGRVTISVDSSKNQFSLKLSSVTAADTAVYYCARHPSDAVYGYANNLWGQGTLVTVSS
notes: also called Morrison-H

- IC50 [4]: 0.0113 µg/mL
- IC50 [5]: 0.0195 µg/mL
B4: PRO1062 (33-03-G02 sc01 IgG1 HC with 38_27_C05 sc01 scFv, PDL1/CD137 (scFv) silent Morrison) (bispecific antibody)
light: B3 light
heavy: B3 heavy
notes: also called Morrison-H

Reference: patent publication US20200283528A1 (NUMAB THERAPEUTICS, published 2020)
